# Patent publication US20220002432A1 (VIRTUOSO BINCO, published 2022)
# Changes are numbered by the printed parent chain.
# T1: Rhesus-ICAM1 (rhesus, UniProt Q5NKV6 28-480, limits assumed)
# T1 sequence (looked up): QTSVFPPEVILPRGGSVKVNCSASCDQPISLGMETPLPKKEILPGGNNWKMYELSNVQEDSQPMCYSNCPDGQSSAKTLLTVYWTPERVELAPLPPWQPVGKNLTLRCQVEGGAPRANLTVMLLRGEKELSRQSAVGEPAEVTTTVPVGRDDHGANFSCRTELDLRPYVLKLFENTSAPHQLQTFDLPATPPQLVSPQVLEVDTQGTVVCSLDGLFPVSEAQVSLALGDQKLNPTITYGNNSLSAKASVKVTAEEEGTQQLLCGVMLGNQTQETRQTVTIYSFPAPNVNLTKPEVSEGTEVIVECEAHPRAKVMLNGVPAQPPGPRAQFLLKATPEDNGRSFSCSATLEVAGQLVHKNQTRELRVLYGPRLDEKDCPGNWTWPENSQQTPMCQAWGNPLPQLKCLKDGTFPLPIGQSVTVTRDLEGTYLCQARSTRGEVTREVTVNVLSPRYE
# B1: 1E2 (antibody, human IgG1, kappa, V domains shown)
# VH: QSVEESGGRLVTPGTPLTLTCTVSGIDLNSYAMGWVRQAPGKGLKYIGIMTSGGNIYYANWAKGRFTISKTSTTVDLRITSPTTEDTATYFCAREREFYGGGTSGSRLDLWGQGTLVTVSS
# VL: AYDMTQTPASVEAAVGGTVTIKCQASQSIYNFLNWYQQKPGQPPKLLIYYASTLAFGVPSRFKGSGSGTEYTLTISGVESADAATYYCQQGWNSGILDNSFGGGTEVVVKR
# notes: Rabbit-human chimeric anti-CD38: rabbit VH and VL on human IgG1 and kappa constant regions
# B2: 23B3 (antibody, human IgG1, kappa, V domains shown)
# VH: QSVEESGGRLVTPGTPLTLTCTVSGFSLSNYDMTWVRQAPGRGLEWIGVISSGDNTNYARWAKGRFTISKTSSTTVDLKITSPTTEDTATYFCARILYNKGRYYFTFWGPGTLVTVSS
# VL: AQVLTQTPSSVSAAVGGTVTINCQSSQSIANSDELAWYQQKPGQPPKLLIYDASTLAPGVPSRFSGSGSGTQFTLTISGVQSDDAATYYCQGTVYDSGWYAAFGGGTEVVVKR
# notes: as for B1
# B3: 21G2 (antibody, human IgG1, kappa, V domains shown)
# VH: QSVEESGGRLVTPGTPLTLTCTVSGFSLSNYGVSWVRQAPGKGLEWIGYILTSGGTYYANWAQGRFTISKTSTTVDLKITSPTTEDTATYFCGRPKDSDSSAFVSLWGPGTLVTVSS
# VL: DVVMTQTPASVSEPVGGTVTINCQASESIYSNLAWYQQKPGQPPKLLIYKASTLASGVSSRFKGSGSGTEFTLTISDLESADAATYYCQANHMIVIYGNGFGGGTEVVVKR
# notes: as for B1
# B4: 21H9 (antibody, human IgG1, kappa, V domains shown)
# VH: QSLEESGGDLVKPGASLTLTCTASGFSATTYYYYMCWVRQAPGKGLEWIACTYTGDGATYYATWAKGRFTISKTSSTTVTLQMTSLTAADTATYFCARSADNSIYYGYFNLWGPGTLVTVSS
# VL: AFELTQTPFSVSEPVGGTVTINCQASENIYSSLAWYQQKPGQPPKLLIYRASTLASGVPSRFSGSGSGTEFTLTISGVQSDDAATYYCQTYYGSTSTGFTFGGGTEVVVKR
# notes: as for B1
# B5: 20B5 (antibody, human IgG1, kappa, V domains shown)
# VH: QSLEESGGDLVKPGASLTLTCTASGFSFSSRYWICWVRQAPGKGLEWIACIVAGTTNTYYASWAKGRFTISKTSSTTVTLQMTSLTAADTATYFCAGDPRTGSNVGYFNLWGPGTLVTVSS
# VL: AQVLTQTPSPVSAAVGGTVTINCQASQSVYNNNYLAWFQQKPGQPPKLLIYSASTLASGVPSRFKGSGSGTQFTLTISEVQSDDAATYYCQAYYSGGIYAFGGGTEVVVKR
# notes: as for B1
# B6: 26D4 (antibody, human IgG1, kappa, V domains shown)
# VH: QEQLEESGGDLVKPEGSLTLTCTASGFSFSNDAICWVRQAPGKGLEWIACIYAGSGNTYYASWAKGRFSISKTSSTTVTLQMTSLTVADTATYFCASADTIDYFNLWGPGTLVTVSS
# VL: B5 VL with F38Y, S52R, T55N, K65S, G66A, S95R, G96D, G97P, I98T, Y99T
# notes: as for B1
# B7: 22H6 (antibody, human IgG1, kappa, V domains shown)
# VH: QSVEESGGRLVTPGTPLTLTCTVSGFSLSNNAISWVRQAPGKGLQWIGSIYGSGNTYYATWAKGRFTVSKTSTTVDLKINSPTTEDTATYFCAREGAGSSWGFNLWGPGTLVTVSS
# VL: AQVLTQTASSVSAAVGGTVTISCQSSESVYKNNYLSWYQQKPGQPLKCLIYSASTLASGVPSRFKGSGSGTQFTLTISDLESDDAATYYCAGGYSGNINGFGGGTEVVVKR
# notes: as for B1
# B8: 14B3 (antibody, human IgG1, kappa, V domains shown)
# VH: QSLEESGGDLVKPGASLTLTCTASGFSSSSGYYICWVRQAPGKGLEWIACIGAGSGAAYYASWAKGRFTMSKTSSTTVTLQMTSLTAADTATYFCARGGFVVGGGYGGYCFNLWGPGTLVTVSS
# VL: AQVLTQTASSVSATVGGTVTISCQSSESVDVNNLAWYQQKPGQPPKLLIYSASTLASGVPSRFKGSGSGTQFTLTVSDLESADAATYYCAGGYSGNIFAFGGGTAVVVKR
# notes: Rabbit-human chimeric anti-ICAM1: rabbit VH and VL on human IgG1 and kappa constant regions
# B9: 8E5 (antibody, human IgG1, kappa, V domains shown)
# VH: QSLEESGGRLVTPGTPLTLTCTVSGFSLSNYAMNWVRQAPGKGLEWIGYISTRGSAYYASWAKGRFTISKTSTTVDLKMTSPTTEDTATYFCARGDLVGGGYIRGSFDPWGPGTLVTVSS
# VL: AQVLTQTPSPVSAAVGGTVTINCQSSQSVVSDKLLSWFQQKPGQPPKLLIYGASTLASGVPSRFKGSGSGTQFTLTISDVQSDDAATYYCAGAYSTDSDIRAFGGGTEVVVKR
# notes: as for B8
# B10: 3D8 (antibody, human IgG1, kappa, V domains shown)
# VH: QSLEESGGDLVKPGASLTLTCTASGFSFSSSYWMCWVRQAPGKGLEWIACIDGGSAGYNYYATWAKGRFTISKTSSTTVTLQMTSLTAADRATYFCARGPGSSYNLWGPGTLVTVSS
# VL: DIVMTQTPASVEAAVGGTVTIKCQASQSISSYLSWYQQKPGQPPKLLIYRASTLASGVPSRFKGSGSGTEFTLTISDLESADAATYYCQSYVFGSSRSYDNAFGGGTEVVVKR
# notes: as for B8
# B11: 6G8 (antibody, human IgG1, kappa, V domains shown)
# VH: QSVEESGGGLVKPGGTLTLTCTVSGFSLSSYAMGWVRQAPGKGLEYIGIIGSSGSTYYATWAKGRFTISKTSTTVDLKITSPTTEDTATYFCVRDPYDSYDAAYRLWGPGTLVTVSS
# VL: AYDMSQTPASVEVAVGGTVTIKCQASQSIYSYLSWYQQKPGQRPKLLIYDASKLASGVPSRFTGSGSGTEFTLTISGVQSDDAATYYCQQAYSSSNVDNVFGGGTEVVVKR
# notes: as for B8
# B12: 2E3 (antibody, human IgG1, kappa, V domains shown)
# VH: B11 VH with T60S, Y100F, D101G, A102D, A103G
# VL: B11 VL with S5T, Q27E, S28N, S31R, S34L, P40L, K45S, T63K, V100A
# notes: as for B8
# Target: T2, CD38 on the surface of Daudi cells (human, UniProt P28907 1-300)
# T2 construct: whole, on cells
# Assay: flow cytometry, Daudi cells;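 note: purified antibodies incubated with Daudi cells for 1 h at 4 °C, bound antibody detected by fluorescent secondary antibody and read by flow cytometry as MFI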
# Description: (§1) Harvested cells were centrifuged at 2000 rpm for 5 min and resuspended with 10-15 ml ice-cold culture medium. Cells were counted and then 3×10⁶ cells were resuspended per mL of blocking buffer (PBS plus 2% FBS). 100 μl of the cell suspension was dispensed into each well of a 96-well plate and incubated at room temperature for 10-20 min. […] While incubating, purified antibodies were diluted to the desired dilution with blocking buffer. After a 10-20 minutes incubation, cells were centrifuged for 5 min at 2000 rmp in a refrigerated centrifuge. Blocking buffer was aspirated, and cells were resuspended in 100 μl/well diluted antibodies and incubated for 1 hour at 4° C. The cells were then washed 3 times with PBS plus 2% FBS. After the final wash, the cells were resuspended in 100 μl 1:500 diluted secondary antibody (Invitrogen, Cat #: A10631) and incubated for 1 hour at 4° C. in the dark. The cells were then washed 3 times with 200 μl PBS by centrifuging at 2000 rpm for 5 min. After the last wash, the cells were resuspended in 300 μl cold PBS and analyzed on a FACSVerse™ (BD Biosciences) flow cytometer.
EC50 [pM],Max Binding MFI [MFI],Binder
497,2130,B1
325,1330,B2
1130,2150,B3
1200,1930,B4
373,816,B5
4060,577,B6
1320,782,B7

# Target: T3, ICAM1 on the surface of DU145 cells (human, UniProt P05362 28-532)
# T3 construct: whole, on cells
# T3 sequence (P05362 28-532): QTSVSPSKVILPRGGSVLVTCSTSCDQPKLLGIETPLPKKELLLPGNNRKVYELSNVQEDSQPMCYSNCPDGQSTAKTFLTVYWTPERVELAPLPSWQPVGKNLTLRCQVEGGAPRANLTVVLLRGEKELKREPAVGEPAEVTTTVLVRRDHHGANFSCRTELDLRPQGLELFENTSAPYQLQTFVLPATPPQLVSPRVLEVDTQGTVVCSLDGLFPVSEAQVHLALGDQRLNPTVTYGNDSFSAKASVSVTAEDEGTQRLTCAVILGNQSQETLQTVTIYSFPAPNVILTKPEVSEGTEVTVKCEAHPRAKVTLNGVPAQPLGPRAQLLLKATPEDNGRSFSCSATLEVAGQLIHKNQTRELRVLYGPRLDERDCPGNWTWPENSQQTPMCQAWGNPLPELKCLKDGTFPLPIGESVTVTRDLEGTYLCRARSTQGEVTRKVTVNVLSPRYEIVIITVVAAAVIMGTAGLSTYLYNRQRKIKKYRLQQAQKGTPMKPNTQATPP
# Assay: flow cytometry, DU145 cells;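 note: purified antibodies in dilution series bound to cells for 1 h at 4 °C, detected with a fluorescent secondary antibody (1 h, 4 °C, dark), read by flow cytometry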
# Description: as §1
EC50 [pM],Max Binding MFI [MFI],Binder
6010,2940,B8
124,9190,B9
208,6430,B10
2230,4190,B11
1590,3980,B12

# Target: T4, recombinant human CD38 (human, UniProt P28907 43-300, limits assumed)
# Assay: SPR (Biacore 8K), antibody captured, antigen injected
# Description: (§2) The binding kinetics of the anti-CD38 and anti-ICAM1 antibodies were evaluated on a Biacore 8K instrument (GE Healthcare). Biacore Series S CM5 sensor chips were immobilized with monoclonal mouse anti-human IgG (Fc) antibody (human antibody capture kit from GE Healthcare). Antibodies were captured on each flow cell. Serial 3-fold dilutions of each antigen were injected at a flow rate of 30 μl/min. Each sample was analyzed with 1 min association and 10 min dissociation at room temperature (25° C.). After each injection, the chip was regenerated using 3M MgCl₂. A 1:1 Langmuir model of simultaneous fitting of kₒₙ and koff was used for kinetics analysis.
Kd [pM],koff [s⁻¹],kon [M⁻¹ s⁻¹],Binder
1620,0.000388,240000,B1
0.029,2.77e-08,970000,B2
190,3.1e-05,167000,B3
4,5.99e-07,166000,B4
98600,0.0341,346000,B5
510000,0.102,200000,B6
65400,0.021,321000,B7

# Target: T5, cynomolgus CD38 ECD (cynomolgus, UniProt Q5VAN0 44-301, biotinylated on the AviTag during preparation)
# T5 construct: also called Cyno-CD38; Avi-Cyno CD38 ECD
# Assay: as above
# Description: as §2
Kd [pM],koff [s⁻¹],kon [M⁻¹ s⁻¹],Binder
68100,0.0124,182000,B1
40,9.46e-05,2.43e+06,B2
1710,0.000432,253000,B3
760,0.00014,184000,B4
54800,0.0322,588000,B5
43800,0.0313,715000,B6
62400,0.0352,564000,B7

# Target: T6, recombinant human ICAM1 (human, UniProt P05362 28-480, limits assumed)
# T6 sequence (P05362 28-480 limits assumed): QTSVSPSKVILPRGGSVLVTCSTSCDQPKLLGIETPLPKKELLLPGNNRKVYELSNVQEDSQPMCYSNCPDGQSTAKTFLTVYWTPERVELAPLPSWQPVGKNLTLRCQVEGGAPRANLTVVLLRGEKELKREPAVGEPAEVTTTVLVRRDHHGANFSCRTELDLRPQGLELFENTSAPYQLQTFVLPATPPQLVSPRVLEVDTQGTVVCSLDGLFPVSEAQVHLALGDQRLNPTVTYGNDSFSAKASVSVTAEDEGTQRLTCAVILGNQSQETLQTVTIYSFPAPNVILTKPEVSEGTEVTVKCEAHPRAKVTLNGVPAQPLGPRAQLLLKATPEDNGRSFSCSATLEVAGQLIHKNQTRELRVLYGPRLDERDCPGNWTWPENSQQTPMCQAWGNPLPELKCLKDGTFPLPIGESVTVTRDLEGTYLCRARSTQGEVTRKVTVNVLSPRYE
# Assay: as above
# Description: as §2
Kd [pM],koff [s⁻¹],kon [M⁻¹ s⁻¹],Binder
2850,0.00027,94800,B8
24400,0.00361,148000,B9
16800,0.00909,540000,B10
1700,0.000533,314000,B11
650,0.000149,227000,B12

# Target: T1, Rhesus-ICAM1
# Assay: as above
# Description: as §2
Kd [pM],koff [s⁻¹],kon [M⁻¹ s⁻¹],Binder
3200,0.000596,186000,B8
7060,0.00189,268000,B9
17300,0.0348,2.01e+06,B10
850,0.00126,1.47e+06,B11
1170,0.000387,330000,B12

# Target: T4, recombinant human CD38
# Assay: ELISA: plate coated with 1 ug/ml recombinant human CD38 ECD, serially diluted antibody, OD450
# Description: (§3) The plate was coated overnight at 4° C. with 1 μg/ml recombinant CD38 or ICAM1. After washing 3 times, the plate was blocked with 300 μl 1% BSA in PBST at 37° C. for 1 hour. Serially diluted antibodies were added and incubated at 37° C. for 1 hour. The plate was then washed 4 times with PBST and incubated with 1:5000 diluted 2nd antibody (Sigma, Cat #A0293) at 37° C. for 1 hour.
row,EC50 (read off the curve) [pM],Binder
1,~60,B1
2,~60,B2
3,~60,B3
4,~60,B4

# Target: T6, recombinant human ICAM1
# Assay: ELISA: plate coated with 1 ug/ml recombinant human ICAM1 ECD, serially diluted antibody, OD450
# Description: as §3
row,EC50 (read off the curve) [pM],Binder
1,~40,B8
2,~40,B9
3,~40,B10
4,~40,B11
5,~40,B12

# Target: T1, Rhesus-ICAM1
# Assay: ELISA: plate coated with 1 ug/ml recombinant rhesus ICAM1 ECD, serially diluted antibody, OD450
# Description: as §3
row,EC50 (read off the curve) [pM],Binder
1,~40,B8
2,~40,B9
3,~40,B10
4,~40,B11
5,~40,B12

# Target: T5, cynomolgus CD38 ECD
# Assay: ELISA: plate coated with 1 ug/ml recombinant cynomolgus CD38 ECD, serially diluted antibody, OD450
# Description: as §3
row,EC50 (read off the curve) [pM],Binder
1,~60,B1
2,~60,B2
3,~60,B3
4,~60,B4
5,~60,B5
6,~60,B6
7,~60,B7
